Test results reported in the supplement of paper PMC9112550, “Optimization of the antimicrobial peptide Bac7 by deep mutational scanning” (BMC Biology, 2022).

Tested on: Escherichia coli TOP10
Assay: shrunken log2 fold change of peptide-encoding DNA abundance (4.5 h post-induction vs induction); higher = less antimicrobial activity (less host growth inhibition)
Conditions: time post-induction: 4.5 h; library: site-saturation at positions 5, 18, 19, 20
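Also: peptides expressed intracellularly from a pBAD plasmid library in pooled LB shake-flask culture, induced with 0.3% L-arabinose, DNA abundance read by NGS, three biological replicates, DESeq2 with apeglm shrinkage.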

Row | Sequence | shrunken log2 fold change
1 | RRIRVRPPRLPRPRPRPTMSPRP | -0.194
2 | RRIRCRPPRLPRPRPRPYFDPRP | -0.446
3 | RRIRSRPPRLPRPRPRPSMCPRP | -0.146
4 | RRIRYRPPRLPRPRPRPWCEPRP | -0.468
5 | RRIRIRPPRLPRPRPRPAQTPRP | -0.0145
6 | RRIRVRPPRLPRPRPRPNNCPRP | -0.0726
7 | RRIRHRPPRLPRPRPRPGNSPRP | 0.0912
8 | RRIRSRPPRLPRPRPRPNMWPRP | -0.311
9 | RRIRMRPPRLPRPRPRPCRAPRP | 0.496
10 | RRIRFRPPRLPRPRPRPIHQPRP | -0.237
11 | RRIRFRPPRLPRPRPRPMTDPRP | -0.269
12 | RRIRVRPPRLPRPRPRPKHWPRP | 0.151
13 | RRIRHRPPRLPRPRPRPRQRPRP | 0.162
14 | RRIRRRPPRLPRPRPRPYWGPRP | 0.133
15 | RRIRRRPPRLPRPRPRPTTQPRP | 0.356
16 | RRIRFRPPRLPRPRPRPDAMPRP | 0.138
17 | RRIRMRPPRLPRPRPRPFHGPRP | -0.128
18 | RRIRGRPPRLPRPRPRPYHHPRP | -0.176
19 | RRIRGRPPRLPRPRPRPQRPPRP | 0.406
20 | RRIRNRPPRLPRPRPRPYGMPRP | -0.331
21 | RRIRQRPPRLPRPRPRPFTVPRP | -0.0315
22 | RRIRWRPPRLPRPRPRPMPAPRP | 0.995
23 | RRIRQRPPRLPRPRPRPACHPRP | 0.105
24 | RRIRNRPPRLPRPRPRPWHCPRP | -0.116
25 | RRIRMRPPRLPRPRPRPYEPPRP | -0.352

Row | Sequence | shrunken log2 fold change
26 | RRIRTRPPRLPRPRPRPVSTPRP | 0.137
27 | RRIRNRPPRLPRPRPRPKDQPRP | -0.108
28 | RRIRNRPPRLPRPRPRPEANPRP | -0.0185
29 | RRIRTRPPRLPRPRPRPNPTPRP | 0.207
30 | RRIRLRPPRLPRPRPRPCMFPRP | -0.431
31 | RRIRQRPPRLPRPRPRPNWGPRP | 0.105
32 | RRIRHRPPRLPRPRPRPATMPRP | -0.123
33 | RRIRYRPPRLPRPRPRPAEHPRP | -0.0954
34 | RRIRMRPPRLPRPRPRPYPPPRP | 0.133
35 | RRIRARPPRLPRPRPRPEYMPRP | -0.276
36 | RRIRGRPPRLPRPRPRPAFWPRP | 0.71
37 | RRIRHRPPRLPRPRPRPWWCPRP | -0.034
38 | RRIRPRPPRLPRPRPRPKSFPRP | -0.0474
39 | RRIRKRPPRLPRPRPRPALQPRP | 0.493
40 | RRIRFRPPRLPRPRPRPADFPRP | -0.09
41 | RRIRPRPPRLPRPRPRPCGKPRP | 0.0102
42 | RRIRMRPPRLPRPRPRPHKFPRP | 0.0123
43 | RRIRVRPPRLPRPRPRPSSAPRP | 0.0552
44 | RRIRIRPPRLPRPRPRPHKNPRP | -0.528
45 | RRIRPRPPRLPRPRPRPCQRPRP | -0.144
46 | RRIRARPPRLPRPRPRPNVEPRP | 0.327
47 | RRIRNRPPRLPRPRPRPINKPRP | -0.56
48 | RRIRDRPPRLPRPRPRPKMPPRP | -0.0144
49 | RRIRHRPPRLPRPRPRPMGGPRP | 0.0348
50 | RRIRLRPPRLPRPRPRPQKDPRP | -0.449
